Consider 7 molecules from PMC8748511 (Nature Communications, 2022).

B1: H5 (VHH)
VHH: QVQLVESGGGLVQPGGSLRLSCAASGVTLDDYAIGWFRQAPGKEREGVSFITSSDGSTFYVDSVKGRFTIARDNAKNTVYLQMNALTPEDTAVYYCAVGPSFSSTGSTYYRSELPWDYDYWGQGTQVTVSS
B2: H11 (VHH)
VHH: B1 VHH with V27L, F59Y, A71S, A85S, S104Y, E113T
B3: H7 (VHH)
VHH: B1 VHH with V27F, F59Y, D62A, A71S, A85D, S104Y
B4: H10 (VHH)
VHH: B1 VHH with V27F, F59Y, T69A, A71S, A85S, S104R, E113V
B5: H6 (VHH)
VHH: B1 VHH with V27F, F59Y, A71S, A85S, S104Y, E113V
B6: H9 (VHH)
VHH: B1 VHH with V27F, G35A, F59Y, A71S, A85D, S104Y
B7: H8 (VHH)
VHH: B1 VHH with V27F, V48I, F59Y, A71S, A85D, S104Y

Changes are numbered by the printed parent chain.

This assay addresses SARS-CoV-2 spike receptor binding domain (RBD) (SARS-CoV-2, founder (Wuhan-Hu-1) …, UniProt P0DTC2, amine-PEG3-biotin attached with sortase A at the C-terminal sortase motif (for SPR)).
With B1, the binding result is on record as “binds”.

Consider B2, for which the binding result is on record as “binds”.

With B3, the binding result is listed as “binds”.

For B4, the binding result is listed as “binds”.

For B5, the binding result is “binds”.

In the case of B6, the binding result is listed as “binds”.

As for B7, the binding result is “binds”.
